Assay results taken from US6849712B1, “Peptides with β1 integrin subunit dependent cell adhesion modulating activity” (Regents of the University of Minnesota, priority 1998, dated 2005).
Entries after “also recorded” stand apart in the source; their conditions may differ. Where no end group is shown, it is not given here. [ ]: non-standard residue; d: D form.

Tests used:
[1] = molecular target: α4β1 integrin (Homo sapiens, UniProt P05556+P13612); experiment: Inhibition of α4β1 dependent adhesion of 8A2 stimulated Ramos cells to IIICS-GST; assay type: cell-based; design: endogenous in cells; host or cells: Ramos cells; details: Ramos cells activated with mAb 8A2, preincubated with peptide, result in words
α4β1 integrin, sequence (P13612 34-1032): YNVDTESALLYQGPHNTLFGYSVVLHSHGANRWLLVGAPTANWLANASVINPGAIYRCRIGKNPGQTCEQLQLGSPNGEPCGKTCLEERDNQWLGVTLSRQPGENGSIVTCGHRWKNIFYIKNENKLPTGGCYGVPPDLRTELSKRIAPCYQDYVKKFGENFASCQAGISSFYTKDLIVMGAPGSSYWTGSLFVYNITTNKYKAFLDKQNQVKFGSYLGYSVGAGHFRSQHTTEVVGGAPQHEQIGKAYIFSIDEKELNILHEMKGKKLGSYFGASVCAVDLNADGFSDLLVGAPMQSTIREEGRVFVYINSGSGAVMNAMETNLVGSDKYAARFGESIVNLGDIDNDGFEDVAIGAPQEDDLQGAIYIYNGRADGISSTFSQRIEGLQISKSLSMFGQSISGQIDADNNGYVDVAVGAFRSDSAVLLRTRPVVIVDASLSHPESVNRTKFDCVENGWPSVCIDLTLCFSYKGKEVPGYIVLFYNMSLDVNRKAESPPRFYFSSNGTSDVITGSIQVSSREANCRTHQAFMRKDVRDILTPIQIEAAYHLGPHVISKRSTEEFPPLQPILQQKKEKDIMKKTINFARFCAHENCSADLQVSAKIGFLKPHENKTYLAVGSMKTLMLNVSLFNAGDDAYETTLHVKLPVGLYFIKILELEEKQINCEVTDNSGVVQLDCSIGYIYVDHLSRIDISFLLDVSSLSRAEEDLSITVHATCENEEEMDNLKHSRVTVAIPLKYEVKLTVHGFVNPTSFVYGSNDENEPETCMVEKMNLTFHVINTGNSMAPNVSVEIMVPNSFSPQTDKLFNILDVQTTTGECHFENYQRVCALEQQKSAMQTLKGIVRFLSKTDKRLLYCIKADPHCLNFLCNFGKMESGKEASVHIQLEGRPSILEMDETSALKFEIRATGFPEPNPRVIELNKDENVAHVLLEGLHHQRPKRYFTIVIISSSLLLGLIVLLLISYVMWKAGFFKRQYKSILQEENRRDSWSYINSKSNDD
α4β1 integrin, sequence (P05556 21-798): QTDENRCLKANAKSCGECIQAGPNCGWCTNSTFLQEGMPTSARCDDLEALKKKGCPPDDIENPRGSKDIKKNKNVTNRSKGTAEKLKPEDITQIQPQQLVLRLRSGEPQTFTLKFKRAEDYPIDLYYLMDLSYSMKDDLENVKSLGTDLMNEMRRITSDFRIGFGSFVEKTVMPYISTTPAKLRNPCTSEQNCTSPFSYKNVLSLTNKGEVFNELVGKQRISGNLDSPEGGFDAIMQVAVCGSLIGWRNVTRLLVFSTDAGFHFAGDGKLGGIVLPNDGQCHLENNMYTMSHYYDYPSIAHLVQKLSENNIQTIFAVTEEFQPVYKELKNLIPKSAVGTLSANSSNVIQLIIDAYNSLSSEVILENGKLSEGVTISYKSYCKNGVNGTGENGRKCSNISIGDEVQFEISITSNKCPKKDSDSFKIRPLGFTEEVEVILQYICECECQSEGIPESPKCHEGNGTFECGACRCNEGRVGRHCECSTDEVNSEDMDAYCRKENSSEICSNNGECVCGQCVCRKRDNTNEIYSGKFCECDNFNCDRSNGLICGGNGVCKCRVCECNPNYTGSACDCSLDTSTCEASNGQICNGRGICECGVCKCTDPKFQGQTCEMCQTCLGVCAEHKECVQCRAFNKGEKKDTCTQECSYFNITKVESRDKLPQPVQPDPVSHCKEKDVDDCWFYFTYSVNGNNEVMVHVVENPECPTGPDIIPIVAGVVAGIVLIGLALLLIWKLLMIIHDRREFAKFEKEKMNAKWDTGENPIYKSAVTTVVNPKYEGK
Source text: IIICS-GST is recombinantly produced fusion protein which contains a fragment from the type III CS region (“IIICS”) of plasma fibronectin fused to glutathione-S-transferase (“GST”). The fibronectin fragment corresponds to fibronectin amino acid residues 1961 to 2039 (sequence numbering for fibronectin as designated in U.S. Pat. No. 4,839,464) and includes the […] (SEQ ID NO:46) amino acid sequence (“CS1”; fibronectin residues 1961-1985). […] In the assay, a 96-well plate was coated with the substrate IIICS-GST. Ramos cells stimulated with the β1 activating monoclonal antibody 8A2 (“Ab 8A2”) were preincubated with one of the peptides to be evaluated for their ability to adhere to IIICS-GST.
The fusion protein can be constructed by first using PCR primers to amplify the coding sequence for residues 1961-2039 of plama fibronectin. The PCR product can be introduced into a suitable bacterial expression vector in frame with the gene for GST. The resulting vector can be transformed and expressed in a suitable host cell, such as E Coli, to produce the fusion protein. If desired, the fusion protein can be purified using a glutathione column.
A 96-well plate was coated in triplicate with […] of IIICS-GST diluted to […] in PBS containing 1 mM CaCl2, MgCl2 (“PBS/cations”) and incubated overnight at 37° C. The IIICS-GST solution was removed and the wells were blocked with 150 μ/well of PBS/cations containing 0.3% BSA for 1-2 hours at 37° C. During the assay each well contained 100 μl of Ramos cells (10,000 cells/well) with or without peptide. Ramos cells were washed 3 times in adhesion media (DMEM without phenol red containing 20 mM HEPES and 3 mg/ml BSA). Cells were counted and resuspended at 200,000 cells/ml. Concentrated Ramos cells were labeled for 20 minutes at 37° C. with 50 μg of the fluorescent label BCECF resuspended in 30 μl of dimethylsulfoxide (“DMSO”). The labeled cells were centrifuged and resuspended in adhesion media at a concentration of 200,000 cells/ml. The cells were activated with the activating Ab 8A2 at a concentration of 2 μg/ml purified IgG or 1:1000 culture supernatant.
While the cells were being labeled, inhibiting peptide dilutions were prepared. Lyophilized peptides were weighed and resuspended in adhesion media at a stock concentration of twice the maximal inhibitory concentration. If a peptide was difficult to get into solution, it was initially resuspended in 30 μl of DMSO. If a peptide needed to be suspended in DMSO, all of the eptides in that particular experiment (including the controls) were suspended in 30 μl of DMSO. […] The dose-dependent dilutions of peptides were prepared using adhesion media to dilute the stock peptide. Labeled cells were mixed with peptide dilutions for 5 minutes at 37° C. at a final concentration of 100,000 cells/ml and appropriate final peptide concentrations.
The blocking solution was removed from the 96-well plate and the cell/peptide mixture is added at 100 μl/well (10,000 cells/well) and incubated for 30 minutes at 37° C. An aliquot of standard cells/peptide (100 μl) was placed at 37° C. for quantitating adhesion. Using aspiration, non-adherent cells were removed from the plate. The standard cells were centrifuged and resuspended in […] of adhesion media. The standard cells were added to empty wells at 100, 80, 60, 40, 20 and 0 μl /well representing 100%, 80%, 60%, 40%, 20% and 0% adhesion, respectively. The plate fluorescence was read at excitation 485 and emission 530. Cell adhesion was represented as percent input cells remaining adherent and was determined by a standard curve of the fluorescence obtained with the standard cells. The experimental fluorescence readings were extrapolated from the standard curve to obtain percent adhesion.

[2] = tested on: peripheral blood mononuclear cells and spleen cells; details: reported, Wahl et al.; cited from earlier work
[3] = in vivo rat model, reported; cited from earlier work
[4] = molecular target: T1, α5β1 integrin (Homo sapiens, UniProt P05556+P08648); experiment: Inhibition of α5β1 integrin dependent Mn+2 stimulated adhesion of K562 cells to fibronectin (FN); assay type: cell-based; details: for inhibition of K562 adhesion to FN at the maximal concentration tested: 0.84 mM peptide, K562 cells stimulated with 1 mM MnCl2
T1 construct: erythroleukemic cell line K562, which expresses α5β1 but not α4β1 integrin; endogenous in cells; host or cells: K562 cells
T1 sequence (P08648 42-894 limits assumed): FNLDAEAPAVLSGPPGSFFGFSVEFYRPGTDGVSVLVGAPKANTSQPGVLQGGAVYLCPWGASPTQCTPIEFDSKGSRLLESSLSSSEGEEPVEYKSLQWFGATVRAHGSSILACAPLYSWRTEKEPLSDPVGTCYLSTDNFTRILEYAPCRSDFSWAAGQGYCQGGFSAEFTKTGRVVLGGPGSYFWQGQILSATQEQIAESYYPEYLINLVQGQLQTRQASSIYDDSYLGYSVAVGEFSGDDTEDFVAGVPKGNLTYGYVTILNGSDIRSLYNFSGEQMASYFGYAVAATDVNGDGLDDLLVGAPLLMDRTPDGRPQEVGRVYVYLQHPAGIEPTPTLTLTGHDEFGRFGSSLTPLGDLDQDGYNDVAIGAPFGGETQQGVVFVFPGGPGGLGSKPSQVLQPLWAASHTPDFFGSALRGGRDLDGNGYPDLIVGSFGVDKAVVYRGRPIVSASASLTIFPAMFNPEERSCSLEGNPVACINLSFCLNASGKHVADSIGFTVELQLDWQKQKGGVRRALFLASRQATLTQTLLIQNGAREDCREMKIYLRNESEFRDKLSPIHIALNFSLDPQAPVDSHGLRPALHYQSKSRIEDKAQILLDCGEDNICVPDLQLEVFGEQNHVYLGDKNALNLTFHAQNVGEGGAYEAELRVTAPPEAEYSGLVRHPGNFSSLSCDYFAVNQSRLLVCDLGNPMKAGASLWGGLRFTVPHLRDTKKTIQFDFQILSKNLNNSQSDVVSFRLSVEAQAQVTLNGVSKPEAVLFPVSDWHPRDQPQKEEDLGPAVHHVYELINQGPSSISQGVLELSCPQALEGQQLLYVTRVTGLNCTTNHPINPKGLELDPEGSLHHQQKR
T1 sequence (P08648 895-1049 limits assumed): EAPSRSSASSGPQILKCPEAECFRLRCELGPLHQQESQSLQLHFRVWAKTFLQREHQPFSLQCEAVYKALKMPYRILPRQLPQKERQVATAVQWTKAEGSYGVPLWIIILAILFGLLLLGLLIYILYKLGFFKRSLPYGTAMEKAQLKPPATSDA
T1 sequence (P05556 21-798): as the sequence (P05556 21-798) above
Protocol: The cell adhesion assay was carried out as described above. […] Each data point represents the mean of triplicate determinations and the error bars represent the standard deviation of the mean. The solid black line represents adhesion to the negative control substrate, BSA.

[5] = tested on: α2β1 and α3β1 integrin; experiment: Inhibition of α2β1, α3β1 integrin dependent human melanoma M14#5 cell adhesion to laminin and type IV collagen; assay type: cell-based; details: 0.5 mg/ml peptide (0.42 mM), 30 minutes
Protocol: An experiment was conducted to examine the ability of FN-C/H V+Y (SEQ ID NO:1) to inhibit α2β1, α3β1 integrin dependent cell adhesion using an assay based on human melanoma cells (M14#5).
Laminin, type IV collagen and BSA were coated overnight in a 96 well microtiter plate at 10 μg/ml and blocked with 0.3% BSA. M14#5 cells were preincubated with 0.5 mg/ml of peptide (equivalent to 0.42 mM FN-C/H V and scrambled FN-C/H V and 0.17 mM CSI) and allowed to adhere to substrates for 30 minutes.

[6] = molecular target: α5β1 integrin (UniProt P08648 42-1049; P05556 21-798); experiment: cell-based or functional assay
α5β1 integrin (UniProt P08648 42-1049; P05556 21-798), sequence (P08648 42-1049, chain 1 of 2): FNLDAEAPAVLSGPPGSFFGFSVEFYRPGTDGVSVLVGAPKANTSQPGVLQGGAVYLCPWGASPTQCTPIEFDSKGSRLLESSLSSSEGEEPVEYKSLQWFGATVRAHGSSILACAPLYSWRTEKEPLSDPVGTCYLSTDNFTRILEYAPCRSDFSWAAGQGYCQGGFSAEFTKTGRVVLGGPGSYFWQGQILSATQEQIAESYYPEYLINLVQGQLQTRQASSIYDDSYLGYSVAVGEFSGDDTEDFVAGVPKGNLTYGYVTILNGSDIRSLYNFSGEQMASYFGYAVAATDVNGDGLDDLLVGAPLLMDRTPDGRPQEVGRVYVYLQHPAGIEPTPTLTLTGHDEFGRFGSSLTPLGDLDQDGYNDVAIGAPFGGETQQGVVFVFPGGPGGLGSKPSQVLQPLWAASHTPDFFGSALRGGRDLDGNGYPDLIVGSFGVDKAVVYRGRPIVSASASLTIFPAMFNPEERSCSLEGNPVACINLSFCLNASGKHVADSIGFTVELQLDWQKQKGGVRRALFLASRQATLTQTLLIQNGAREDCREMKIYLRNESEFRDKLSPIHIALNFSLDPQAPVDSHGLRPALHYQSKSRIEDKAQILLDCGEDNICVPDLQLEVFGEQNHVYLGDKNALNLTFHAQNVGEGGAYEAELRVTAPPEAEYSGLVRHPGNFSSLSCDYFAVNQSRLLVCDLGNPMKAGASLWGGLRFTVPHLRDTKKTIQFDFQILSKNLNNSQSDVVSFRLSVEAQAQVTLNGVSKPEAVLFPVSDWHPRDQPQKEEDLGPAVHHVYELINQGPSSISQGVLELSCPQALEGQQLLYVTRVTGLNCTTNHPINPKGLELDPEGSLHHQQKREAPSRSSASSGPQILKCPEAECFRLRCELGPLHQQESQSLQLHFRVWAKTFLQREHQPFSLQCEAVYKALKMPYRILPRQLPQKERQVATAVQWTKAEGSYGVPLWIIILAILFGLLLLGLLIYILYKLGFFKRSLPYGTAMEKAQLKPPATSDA
α5β1 integrin (UniProt P08648 42-1049; P05556 21-798), sequence (P05556 21-798, chain 2 of 2): as the sequence (P05556 21-798) above

Molecule	inhibition of adhesion of 8A2 stimulated Ramos cells to IIICS-GST [1]	also measured
QPPRARIY (listed as Homo sapiens) [SEQ ID NO:22]	also exhibited α4β1 integrin dependent cell adhesion inhibition activity	
ARITGYIIY (listed as Homo sapiens) [SEQ ID NO:14]	exhibit the capability of inhibiting β1 integrin subunit dependent adhesion; also recorded: most active peptide; also recorded: inhibited cell adhesion	
WQPPRARVY (listed as Homo sapiens) [SEQ ID NO:29]	comparable to that of FN C/H V+Y	
all D-form of FN-C/H V+Y: all D-form of FN-C/H V+Y (SEQ ID NO:1) ([dW][dQ][dP][dP][dR][dA][dR][dI][dY]; listed as Homo sapiens)	Neither of these two compounds inhibited Ramos cell binding	inhibition of adhesion of 8A2 stimulated Ramos cells to IIICS-GST ([1]; listed as D-amino acid FN-C/H V−Y): unable to inhibit adhesion
WQPPAARIY (listed as Homo sapiens) [SEQ ID NO:7]	capable of inhibiting β1 integrin dependent cell adhesion	
RARITGYIY (listed as Homo sapiens) [SEQ ID NO:13]	exhibit the capability of inhibiting β1 integrin subunit dependent adhesion; also recorded: exhibited α4β1 integrin dependent cell adhesion inhibition	
WAPPRARIY (listed as Homo sapiens) [SEQ ID NO:4]	capable of inhibiting β1 integrin dependent cell adhesion	
KNNQKSEPLIGR-KKTY (KNNQKSEPLIGRKKTY; listed as Homo sapiens) [FN-C/H II+Y]		inhibition of leukocyte adhesion to fibronectin in vitro [2]: inhibit leukocyte adhesion to fibronectin in vitro; anti-inflammatory properties [3]: exhibit anti-inflammatory properties
ARIY (listed as Homo sapiens) [SEQ ID NO:26]	comparable on an equimolar basis to that of Y-tagged FN C/H V	
PPRARIY (listed as Homo sapiens) [SEQ ID NO:23]	also exhibited α4β1 integrin dependent cell adhesion inhibition activity	
SPPRRARVTY (listed as Homo sapiens) [FN-C/H IV+Y]		inhibition of leukocyte adhesion to fibronectin in vitro [2]: inhibit leukocyte adhesion to fibronectin in vitro
YIRARPPQW (not fully specified (some residues); listed as Homo sapiens) [SEQ ID NO:40]		inhibition of adhesion of 8A2 stimulated Ramos cells to IIICS-GST ([1]; listed as retro inverso FN-C/H V+Y): Neither of these two compounds inhibited Ramos cell binding; inhibition of adhesion of 8A2 stimulated Ramos cells to IIICS-GST ([1]; listed as retro-inverso FN-C/H V−Y): unable to inhibit adhesion
WQPPRARIF (listed as Homo sapiens) [SEQ ID NO:32]	comparable to that of FN C/H V+Y	
WQPPRARIW (listed as Homo sapiens) [SEQ ID NO:33]	comparable to that of FN C/H V+Y	
RARIY (listed as Homo sapiens) [SEQ ID NO:25]	comparable on an equimolar basis to that of the 9 residue peptide, Y-tagged FN C/H V	
WQPPRAAIY (listed as Homo sapiens) [SEQ ID NO:8]	capable of inhibiting β1 integrin dependent cell adhesion	

Molecule	inhibition of adhesion of 8A2 stimulated Ramos cells to IIICS-GST [1]	also measured
N=C(N)NCCC[C@H](N)C(=O)NCC(=O)N[C@@H](CC(=O)O)C(=O)O [RGD, reference compound]		inhibition of K562 adhesion to FN at the maximal concentration tested [4]: completely inhibited
IYWQPPRAR (listed as Homo sapiens) [SEQ ID NO:34]	inactive	
WQPPRARYI (listed as Homo sapiens) [SEQ ID NO:36]	inactive	
PRARIY-OH [SEQ ID NO:24, PRARIY]	comparable on an equimolar basis to that of the 9 residue peptide, Y-tagged FN C/H V; also recorded: able to inhibit	inhibition of K562 adhesion to FN at the maximal concentration tested [4]: completely inhibited; IC50 ([4]; K562 cells stimulated with 1 mM MnCl2, adhesion to FN, read-out: half-maximal inhibitory concentration): ~200 µM
WQPPRARLY (listed as Homo sapiens) [SEQ ID NO:28]	comparable to that of FN C/H V+Y	
PRQAWRPIY (listed as Homo sapiens) [SEQ ID NO:18]	exhibit the capability of inhibiting β1 integrin subunit dependent adhesion; also recorded: inhibited cell adhesion	
AQPPRARIY (listed as Homo sapiens) [SEQ ID NO:3]	capable of inhibiting β1 integrin dependent cell adhesion	
WQPPRARI (listed as Homo sapiens) [SEQ ID NO:37, reference compound]	also inactive	
WQPPDADIY (listed as Homo sapiens) [SEQ ID NO:38]	inhibits the 8A2 stimulated adhesion of Ramos cells at least as strongly as FN-C/H V+Y; also recorded: does not alter the ability of the peptide to inhibit β1 integrin subunit dependent adhesion	
WQPIYPRAR (listed as Homo sapiens) [SEQ ID NO:35]	inactive	
RPAPQRWIY (listed as Homo sapiens) [SEQ ID NO:20]	exhibit the capability of inhibiting β1 integrin subunit dependent adhesion; also recorded: inhibited cell adhesion	
PRARI (listed as Homo sapiens) [SEQ ID NO:39]	not PRARI was able to inhibit	
RPQIPWARY (listed as Homo sapiens) [SEQ ID NO:2]	did not inhibit cell adhesion	inhibition of M14#5 cell adhesion to laminin ([5]; laminin coated substrate): has no effect; inhibition of M14#5 cell adhesion to type IV collagen ([5]; type IV collagen coated substrate): has no effect
RIY		half-maximal inhibitory concentration (K562 adhesion to FN) [6]: ~0.2 mM
WQPPRARIY [FN-C/H V+Y]		half-maximal inhibitory concentration (K562 adhesion to FN) [6]: 0.2 mM
PRARIY		half-maximal inhibitory concentration (K562 adhesion to FN) [6]: ~0.2 mM
